Test results published in the nanobody polyreactivity screen of Harvey et al. (2022).

assay: yeast display, Sf9 membrane polyspecificity reagent, FACS + sequencing; frameworks hold sequencing errors
Summary of the method: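 Sorting gates, low and high (top ~1%), were placed on anti-HA fluorescence to track expression and on streptavidin fluorescence to track reagent binding. A clone's polyreactivity label is taken from the gate it came out of. The reagent was 10% biotinylated, detergent-solubilized Sf9 membrane, applied for 1 hour at 4 °C to galactose-induced yeast display cells.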

Row | Sequence | polyreactivity (PSR sort gate)
1 | QDQLVESGGGLVQAGGSLRLSCAASGIILPRYAMGWYRQAPGKERELVAAISRGGGTYYADSVKGRFTISRDNAKNSVYLQMNSLKPEDTAFYYCDAAYVFVGSSHYYWGQGTQVTVSS | high polyreactivity
2 | QDQLVESGGGLVQAGGSLRLSCAASGINFKYYAMGWYRQAPGKERELVAAISRSGSSTYYADSVKGRFTISRDNAKNTVYLQMNSLIPEDTSVYYCADQPYDSNYGNSGYWGQGTQVTVSS | high polyreactivity
3 | QDQLVESGGGLVQAGGSLRLSCAASGITFPKYAMGWYRQAPGKERELVAAITKSGGSTYYADSVKGRFTISRDNAKNTVYLQMNSLKPEVTAVYYCAARPRYGEYDYWGQGTQVTVSS | high polyreactivity
4 | QDQLVESGGGLVQAGGSLRLSCAASGITLFYYAMGWYRQAPGKERELVAVISASGGSTYYADSVKGRFTISRDNAKNTVYLQMNSLKQEDTAVYYCAAVAYWRSSSWYYYWGLGTQVTVSS | high polyreactivity
5 | QDQLVESGGGLVQAGGSLRLSCAASGLIFGGYDMGWYRQAPGKERELVAAISCDDGDTYYADSVKGRFTISRDNAKNTVYLQMNSLKPEDTAVYYCAAESLSGAHGYWGQGTQVTVSS | low polyreactivity
6 | QDQLVESGGGLVQAGGSLRLSCAASGLIFRHYAMGWSRQAPGKERELVAAITWSGGSTYYADSVKGRFTISRDNAKNTVYLQMNSLKAEDTAVYYCAAEGTGYSVGWQYGYWGQGTQVTVSS | low polyreactivity
7 | QDQLVESGGGLVQAGGSLRLSCAASGLIFVGYALGGYRQAPGKERELVAAITSGGSTKYADSVKGRFTSSRDNAKNTVYLQMNSLKPEDTAVYYCAASGWRNWWSARNYYWGQGTQVTVSS | high polyreactivity
8 | QDQLVESGGGLVQAGGSLRLSCAASGLISSINAMGWYRQAPGKERELVAAISFSGGRTYYADSVKGRFTISRDNAKNTVYLQMNSLKPEDTAVYYFNAVSGGHRSRYGYWGQGTLVTVSS | high polyreactivity
9 | QDQLVESGGGLVQAGGSLRLSCAASGLTFFYYAMGWSRQSPGKERELVAAISRGGSTYYADSVKGRFTISRDHAKYTVYLQMKSLNPEDTAVYYCAAKTYQKEIVRPMYYWGQGTQVTVSS | high polyreactivity
10 | QDQLVESGGGLVQAGGSLRLSCAASGLTFGRYAMGWYRQAPGKERELVAAITWNGDGTYYADSVKGRFTISRDNAKNTVYLQMNSQKPEDSAVFYCAADYYTYLYGRYNYWGQGTQVTVSS | low polyreactivity
11 | QDQLVESGGGLVQAGGSLRLSCAASGLTFGYYAMGWYRQAPGKERELVAAINSGGSTYYADSVKGRFTISRDNAKNTVYFQMNSLKPEDTAVYYCNATLDLYDSVSYTGPGMDYWGQGTQVTVSS | low polyreactivity
12 | QDQLVESGGGLVQAGGSLRLSCAASGNIFPSYVMGWYRQAPGKERELVAAITWKGGSTYYADSVKGRFTISRDNAKNTVYLQMNSLKPEDTAVYYCNAVGNLYSRDDYWGQGTQVTVSS | low polyreactivity
13 | QDQLVESGGGLVQAGGSLRLSCAASGNIFVTNAMGWYRQAPGKERELVAAITYSGGTTYYADSVKGRFTISRDNAKNTVYLQMNSLKPEDTAVYYCAADFATWTYYPYRLDEFDYWGQGTQVTVSS | low polyreactivity
14 | QDQLVESGGGLVQAGGSLRLSCAASGRIFDTNAMGRYRQAPGKERELVATNTRSAGRTYYADSVKGRFTISRDNAKIKVFLQMNILKPEDTAVYFCNADWGPTYEIYDSWGQGTQVTVSS | low polyreactivity
15 | QDQLVESGGGLVQAGGSLRLSCAASGRIFGWYAMGWYRQAPGKERELVAAISNDGSTNYADSVKGRFTISRDNAKNTVYLQMNSLKPEDTAVYYSAARFYRSSYGWYGYWGQGTQVTVSS | high polyreactivity
16 | QDQLVESGGGLVQAGGSLRLSCAASGRIFIVYAMGWYRQAPGKERELDAAISRNGGRTYYADSVKGRFTISRDNAKNSVDLQMNSLKPEDTSVYYCNSVALYPYTTYDYWGQGSQVTVSS | high polyreactivity
17 | QDQLVESGGGLVQAGGSLRLSCAASGRIFRPNTMGWYRQAPGKERELVASISLSAGSTYYADSVKGRFTISRDNAKNTVYLQMNSLKPEDTAVYYCNATYLSWYRYKYNYWGQGTQVTVSS | low polyreactivity
18 | QDQLVESGGGLVQAGGSLRLSCAASGRIFTGNAMGWYRQAPGKERELVAAITKSGGSTYYADSVKGRFTISRDNAKNTVYLQMNSLKPEDTAVYYCAATRYLHYVYKYGYWGQGTQVTVSS | high polyreactivity
19 | QDQLVESGGGLVQAGGSLRLSCAASGRIFVYYVMGWYRQAPGKERELVAAITYSGGSTYYADSVKVRFTISRDNAKNTVYLQMNSLKPEDTAVYACNKVDAFGIVRLYYWGQGTQVTVSS | low polyreactivity
20 | QDQLVESGGGLVQAGGSLRLSCAASGRTFGYNAMGWYRQAPGKERELVAANNWSGASTYYADSVKGRFTISRDNAKNTVYLQMNSLKPDDSAVYYCAADYSYIYGFDYWGQGTQVTVSS | low polyreactivity
21 | QDQLVESGGGLVQAGGSLRLSCAASGRTFGYYVMGWYRQAPGKERELVAAISRSGGTTYYADSVKGRFTISRDNAKNTVYLQMNSLKPEDTAVYYCATDSRTGYDYWGQGTQVTVSS | high polyreactivity
22 | QDQLVESGGGLVQAGGSLRLSCAASGRTFIRNAMGWYRQAPGKERELVAAISRSGGRTYYADSVKGRFTISRDNAKNTVYLQMNSLKPEDTAVYYCAAGSYQRYAFDYWGQGTQVTVSS | high polyreactivity

Row | Sequence | polyreactivity (PSR sort gate)
23 | QDQLVESGGGLVQAGGSLRLSCAASGRTFQYNAMGWDRQARGSERELVAAISSSGGSTYYADSVKGRFTISRDNAKNTVYLQMNSLKPEDTAVYYCNAYSQSWNFYGDGDYWGQGTQVTVSS | low polyreactivity
24 | QDQLVESGGGLVQAGGSLRLSCAASGRTFRYNTMGWYRQAPGKERELVASISWGGGSTYYADSVKGRFTISRDTAKNTVYLQMNSLKPEDTAVYYCAARRWGQFRFEYWGQGTQVTVSS | high polyreactivity
25 | QDQLVESGGGLVQAGGSLRLSCAASGRTFSYNAMGWYRQAPRKERELVAAISYDGGRTYYADSVKGRFTISRDNAKNTFYLQMNSLKPEDTAVYYCAAYPYRGPHTWTIGDYWGQGTQVTVSS | low polyreactivity
26 | QDQLVESGGGLVQAGGSLRLSCAASGRTFWAYAMGWYRQAPGKEREVVASIRSSGTSTYYADSVMGRFTISRDNAKNSVYLQMNSLKPEDTAVYYCAATSGYARYYHREYWGQGTQVTVSS | high polyreactivity
27 | QDQLVESGGGLVQAGGSLRLSCAASGRTFYYAMGWYRQAPGKERYADSVKGRFTISRDNAKNTVYLQMNSLKPEDTAVYYCAAKVPEPPSLDESDYWGQGTQVTVSS | low polyreactivity
28 | QDQLVESGGGLVQAGGSLRLSCAASGRTIKTYAMGWYRQAPGKVRELVAAIRRRGGSTYYADSVKGRFTISRDNAKNTVYLQMHSLKPEDTAVYYCAAGYVTYRDAHVSMDYCGQGTQVTVSS | high polyreactivity
29 | QDQLVESGGGLVQAGGSLRLSCAASGRTISYYAMGWYRQAPGKERELVAAISGGGSTNYADSVKGRFTISRDNAKNTVYLQMNSLKPEDTAVYYCNARVYGVFRRRVNYWGQGTQVTVSS | high polyreactivity
30 | QDQLVESGGGLVQAGGSLRLSCAASGSIFDIYAMGWYRQAPGKEREMVASIRRRGGSTYYADSVKGRFTISRDNAKNTVYLQMNSLKPEDTAVYDCNARRVWLRTTWTNWPERGYWGQGTQVTVSS | high polyreactivity
31 | QDQLVESGGGLVQAGGSLRLSCAASGSIFDPYTMGWYRQAPGKERELVAAINWSGGSTSYADSVKGRFTISRDNAKNPVYLQMNSLKPEDTAVYYCNADPHGYYGYGYDYWGQGTQVTVSS | low polyreactivity
32 | QDQLVESGGGLVQAGGSLRLSCAASGSIFGVYAMGWNRQAPGKERELVAAITRGGRTYYADSVKGRFTISRDNAKNTVYLQMNCLKPEDTAVYYCAALPLRERYGYWGQGTQVTVSS | high polyreactivity
33 | QDQLVESGGGLVQAGGSLRLSCAASGSIFLKYVMGVYRPEPGKERELVASISSGGGTYYADSVKGRFTISRDNAKNTVYLQMNILKPEDTAVYYCARRPYRGSYAFDYWGQGTQVTVSS | low polyreactivity
34 | QDQLVESGGGLVQAGGSLRLSCAASGSIFPNYAMGWYRQAPGKERELVAAISSSGGRTYYADSVKGRFTISRDNAKNTVYLQMNSLKPEDTAVYYCAADTYTSAQHEKYDYWGQGTQVTVSS | low polyreactivity
35 | QDQLVESGGGLVQAGGSLRLSCAASGSIFRYYAMGWYIQAPGKEREFVASITYRGGRTYYADSVKGRFTISRDNAKNTFFLQMNSLKPEDTAVYYCAARTRAGAWTSKYHDYWGQGTQVNVSS | high polyreactivity
36 | QDQLVESGGGLVQAGGSLRLSCAASGSIFSTYAMGWYRQAPGKERELVAAIDGSGGSTYADSVKGRFTISRDNAKNTVYLQMNSLKPEDTAVYYCAVDSFLVYSAVRPYDYWGQGTQVTVSS | low polyreactivity
37 | QDQLVESGGGLVQAGGSLRLSCAASGSIFVYNTMGWYRPAPRKESDLVAAISSSGGSTYYADSVKGRYTISRDNAKNTVYLQMNSLKPEDTAVYYCAAVNGYQYPPNYYNGYDYWGQGTQVTVSS | low polyreactivity
38 | QDQLVESGGGLVQAGGSLRLSCAASGSIFYDKAMAWYRQAPGKEREFVASITNSGSTNYADSVKGRFTISRDNAKNTVYLQMNSLKAEDTAVYFCAAEVYVDYTGYSYFDYPYDYWGQGTHVTVSS | low polyreactivity
39 | QDQLVESGGGLVQAGGSLRLSCAASGSIFYRNAMGWYRQAPGKERELVAAITRGGITNYADSVKGRFTISRDNAKNTVYLQMNSLKPEDTAVYYCPRVPGRTTQYDYWGQGTQVTVSS | low polyreactivity
40 | QDQLVESGGGLVQAGGSLRLSCAASGSNFDRYTMGWYRQAPGKERELLAAITRRGGSTNYADSVKGRFTISRDNAKFTVYLQMISLKPEDTALYYCARATDLNDKPSWDEYWGQGTQVTVSS | high polyreactivity
41 | QDQLVESGGGLVQAGGSLRLSCAASGSNFSWNDMGWYRQAPGKERELVAAITSDDTSTYYADSVKGRFTISRDNAKNSVYLQMNSLKPEDTAVYYCAADYGNPFDYWGQGTQVTVSS | low polyreactivity
42 | QDQLVESGGGLVQAGGSLRLSCAASGSSFDINAMGGYRQAPGKERELVAAISWIGGSTYYADSVKGRFTISRDNAKNTVYLKMNSLKPEDTAVYYCAKKELRQYDMEYWGQGTQVTVSS | low polyreactivity
43 | QDQLVESGGGLVQAGGSLRLSCAASGSSFFSNAMGWYRPAPGKERELVAAITSTGGSTYYADSVKGRFTISRDHAKNTVYLQMNSLKPEDTAVYYCAAASRRGYYYWGQGTQVTVSS | high polyreactivity
